Values of other authors in publication PMC8836397.

Assays:
[1] = biological target: Leu-enkephalin (Homo sapiens) (UniProt P01210)
Sequence of UniProt P01210 (P01210 whole entry, looked up): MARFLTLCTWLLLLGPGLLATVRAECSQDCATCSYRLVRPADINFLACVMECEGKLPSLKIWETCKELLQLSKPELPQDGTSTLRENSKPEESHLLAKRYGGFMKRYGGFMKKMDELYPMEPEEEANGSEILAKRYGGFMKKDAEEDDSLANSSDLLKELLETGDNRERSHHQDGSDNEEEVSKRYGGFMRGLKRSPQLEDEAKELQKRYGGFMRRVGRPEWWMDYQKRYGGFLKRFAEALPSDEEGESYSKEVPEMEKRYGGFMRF

Row | Ki (WVYPW (tynorphin analog)) [nM] | Ki (IVYPW (tynorphin analog)) [nM] | Kd [1] [µM] | Substance
1 | 126 | 100 | – | DPP III (from UniProt Q9NY33)
2 | – | – | 3.6 | DPP III (inactive variant) (from UniProt Q9NY33)
